From paper PMC10997623, “Cryo-EM structures of prokaryotic ligand-gated ion channel GLIC provide insights into gating in a lipid environment” (Nature Communications, 2024)

Biological target: the molecule itself
Test: cryo-EM structure; GLIC in MSP1E3D1 lipid nanodiscs (asolectin at pH 7.5; DOPE:POPS:POPC 2:1:1 at pH 7.5, 5.5, 4.0 and 2.5), 150 mM NaCl, 1 mM EDTA; seven maps at 2.6-3.4 Å; homopentamer

B1: GLIC, proton-activated prokaryotic ligand-gated ion channel from Gloeobacter violaceus (natural protein)
chain: QDMVSPPPPIADEPLTVNTGIYLIECYSLDDKAETFKVNAFLSLSWKDRRLAFDPVRSGVRVKTYEPEAIWIPEIRFVNVENARDADVVDISVSPDGTVQYLERFSARVLSPLDFRRYPFDSQTLHIYLIVRSVDTRNIVLAVDLEKVGKNDDVFLTGWDIESFTAVVKPANFALEDRLESKLDYQLRISRQYFSYIPNIILPMLFILFISWTAFWSTSYEANVTLVVSTLIAHIAFNILVETNLPKTPYMTYTGAIIFMIYLFYFVAVIEVTVQHYLKVESQPARAASITRASRIAFPVVFLLANIILAFLFFGF
notes: GLIC, Gloeobacter violaceus ligand-gated ion channel; expressed as a GLIC-MBP fusion from pET26, MBP removed with HRV-3C protease; Homopentamer; also called GLIC_(aso-pH7.5); GLIC_(pH7.5); source: E. coli C41, purified (DDM, amylose resin, SEC), reconstituted in lipid nanodiscs with MSP1E3D1
For B1, the “stoichiometry N” value was 5.
